Earlier results in publication PMC1991591.

Biological target: Fus3 (Saccharomyces cerevisiae) (UniProt P16892)
Chain of UniProt P16892 (P16892 whole entry): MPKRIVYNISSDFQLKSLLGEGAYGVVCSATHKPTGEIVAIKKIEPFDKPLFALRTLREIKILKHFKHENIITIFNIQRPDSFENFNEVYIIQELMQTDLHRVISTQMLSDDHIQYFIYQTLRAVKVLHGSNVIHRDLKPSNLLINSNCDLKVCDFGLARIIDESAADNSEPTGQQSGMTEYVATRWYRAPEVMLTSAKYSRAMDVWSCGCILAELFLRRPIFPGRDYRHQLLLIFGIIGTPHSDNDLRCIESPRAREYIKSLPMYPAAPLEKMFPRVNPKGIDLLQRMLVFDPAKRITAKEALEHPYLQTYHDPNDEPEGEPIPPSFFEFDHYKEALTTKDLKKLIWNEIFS

Kd: 1000 nM
Substance: Ste5 (from UniProt P32917)
